Legend:
[1] = molecular target: hemagglutinin (HA) of H1N1 influenza A strain A/Netherlands/002P1/1951, mature HA1/HA2 trimer (Influenza A virus H1N1, strain A/Netherlands/002P1/1951); test: crystal structure
[2] = molecular target: hemagglutinin (HA) of H1N1 influenza A strain A/Hickox/JY2/1940, mature HA1/HA2 trimer (Influenza A virus H1N1, strain A/Hickox/JY2/1940) (UniProt Q0HD60); test: crystal structure
[3] = molecular target: hemagglutinin (HA) of H1N1 influenza A strain A/Fort Monmouth/1/1947, mature HA1/HA2 trimer (Influenza A virus H1N1, strain A/Fort Monmouth/1/1947); test: crystal structure
[4] = molecular target: hemagglutinin (HA) of H1N1 influenza A strain A/Denver/57/1957, mature HA1/HA2 (Influenza A virus H1N1, strain A/Denver/57/1957); test: crystal structure
[5] = molecular target: hemagglutinin (HA) of H1N1 influenza A strain A/Melbourne/1/1946, mature HA1/HA2 trimer (Influenza A virus H1N1, strain A/Melbourne/1/1946); test: crystal structure
[6] = molecular target: hemagglutinin (HA) of H1N1 influenza A strain A/Iowa/1943 (Influenza A virus H1N1, A/Iowa/1943 …, UniProt A4GCK8, strain); test: SEC; details: both partners purified

## hemagglutinin (HA) of H1N1 influenza A strain A/Netherlands/002P1/1951, mature HA1/HA2 trimer (natural protein)
[1]
  stoichiometry N: 3

## hemagglutinin (HA) of H1N1 influenza A strain A/Hickox/JY2/1940, mature HA1/HA2 trimer (from UniProt Q0HD60) (natural protein)
[2]
  stoichiometry N: 3

## hemagglutinin (HA) of H1N1 influenza A strain A/Fort Monmouth/1/1947, mature HA1/HA2 trimer (natural protein)
[3]
  stoichiometry N: 3

## hemagglutinin (HA) of H1N1 influenza A strain A/Denver/57/1957, mature HA1/HA2 (natural protein)
[4]
  stoichiometry N: 3

## hemagglutinin (HA) of H1N1 influenza A strain A/Melbourne/1/1946, mature HA1/HA2 trimer (natural protein)
[5]
  stoichiometry N: 3

B1: anti-influenza head-binding antibody C05 fragment antigen binding (Fab) (Fab, V domains shown)
VH: EVQLQESGGGLVQPGESLRLSCVGSGSSFGESTLSYYAVSWVRQAPGKGLEWLSIINAGGGDIDYADSVEGRFTISRDNSKETLYLQMTNLRVEDTGVYYCAKHMSMQQVVSAGWERADLVGDAFDVWGQGTMVTVSS
VL: DIQLTQSPSSLSASVGDRVTLTCQASQDIRKFLNWYQQKPGKGPKLLIYDASNLQRGVPSRFSGGGSGTDFTLIISSLQPEDVGTYYCQQYDGLPFTFGGGTKVVIK
notes: also called C05 Fab; C05 antibody; not shown: His6, C-terminal, kept
[6]
  binding result: binds
